Sequences and labels used below:
B1: F1*; the commonest letter at each place (parent)
chain: GAGACCGCAACTGAAAAGTTGTTATCACTTGTCGTAAGACACTTTGGATGGGTTGAAGTTCTGCACGTAGAAGCAAAAGGC

In the data set the parent is B1. Briefly: fraction ligated after 30 min (ligated reads / total reads); higher = more ligase activity. The note with it: with F1*sub RNA substrate (template-directed ligation), 42 °C. In outline: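 Oligo-pool templates of ligase ribozyme variants were PCR-amplified, T7-transcribed and gel-purified. Ligated and unligated bands were gel-separated, reverse transcribed with barcoded primers, and MiSeq-sequenced; core bases were filtered at quality ≥20. Fraction ligated per variant was ligated reads over total reads.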
On to GAGACCGCAACTGAAAAGTTGTTATCCGTTGTCGTAAGACACTTTGGATGGGTTGAAGTTCTGCACGTAGAAGCAAAAGGC [A27C C28G], for which the fraction ligated came out at 0.807.

As for GAGACCGCAACTGAAAAGTTGTTATCCATTGTCGTAAGACACTTTGGATGGGTTGAAGTTCTGCACGTAGAAGCAAAAGGC [A27C C28A], the fraction ligated was found to be 0.807. As to GAGACCGCAACTGAAAAGTTGTTATCCTTTGTCGTAAGACACTTTGGATGGGTTGAAGTTCTGCACGTAGAAGCAAAAGGC [A27C C28T], the fraction ligated was 0.819. For the variant GAGACCGCAACTGAAAAGTTGTTATCCCTTGTCGTAACACACTTTGGATGGGTTGAAGTTCTGCACGTAGAAGCAAAAGGC [A27C G38C], the fraction ligated amounted to 0.792. Regarding GAGACCGCAACTGAAAAGTTGTTATCCCTTGTCGTAAAACACTTTGGATGGGTTGAAGTTCTGCACGTAGAAGCAAAAGGC [A27C G38A], the fraction ligated came out at 0.807. With GAGACCGCAACTGAAAAGTTGTTATCCCTTGTCGTAATACACTTTGGATGGGTTGAAGTTCTGCACGTAGAAGCAAAAGGC [A27C G38T], the fraction ligated is 0.837.

GAGACCGCAACTGAAAAGTTGTTATCCCTTGTCGTAAGACACTTTGGATTGGTTGAAGTTCTGCACGTAGAAGCAAAAGGC [A27C G50T]: the fraction ligated is 0.37. In the case of GAGACCGCAACTGAAAAGTTGTTATCCCTTGTCGTAAGACACTTTGGATCGGTTGAAGTTCTGCACGTAGAAGCAAAAGGC [A27C G50C] it was 0.0749.

Regarding GAGACCGCAACTGAAAAGTTGTTATCCCTTGTCGTAAGACACTTTGGATAGGTTGAAGTTCTGCACGTAGAAGCAAAAGGC [A27C G50A], the fraction ligated was determined as 0.18.

In the case of GAGACCGCAACTGAAAAGTTGTTATCCCTTGTCGTAAGACACTTAGGATGGGTTGAAGTTCTGCACGTAGAAGCAAAAGGC [A27C T45A], the fraction ligated came out at 0.598. As for GAGACCGCAACTGAAAAGTTGTTATCCCTTGTCGTAAGACACTTCGGATGGGTTGAAGTTCTGCACGTAGAAGCAAAAGGC [A27C T45C], the fraction ligated amounted to 0.335. In the case of GAGACCGCAACTGAAAAGTTGTTATCCCTTGTCGTAAGACACTTGGGATGGGTTGAAGTTCTGCACGTAGAAGCAAAAGGC [A27C T45G] it was 0.116; in that of GAGACCGCAACTGAAAAGTTGTTATCCCTTGTCGTAAGACACGTTGGATGGGTTGAAGTTCTGCACGTAGAAGCAAAAGGC [A27C T43G], 0.765.

For the variant GAGACCGCAACTGAAAAGTTGTTATCCCTTGTCGTAAGACACATTGGATGGGTTGAAGTTCTGCACGTAGAAGCAAAAGGC [A27C T43A], the fraction ligated came out at 0.844. With GAGACCGCAACTGAAAAGTTGTTATCCCTTGTCGTAAGACACCTTGGATGGGTTGAAGTTCTGCACGTAGAAGCAAAAGGC [A27C T43C] the figure was 0.78.

Turning to GAGACCGCAACTGAAAAGTTGTTATCCCTTGTCGTAAGACACTTTGGATGGGTTTAAGTTCTGCACGTAGAAGCAAAAGGC [A27C G55T], the fraction ligated worked out at 0.792. GAGACCGCAACTGAAAAGTTGTTATCCCTTGTCGTAAGACACTTTGGATGGGTTAAAGTTCTGCACGTAGAAGCAAAAGGC [A27C G55A]: the fraction ligated is 0.805. In the case of GAGACCGCAACTGAAAAGTTGTTATCCCTTGTCGTAAGACACTTTGGATGGGTTCAAGTTCTGCACGTAGAAGCAAAAGGC [A27C G55C] it was 0.355; in that of GAGACCGCAACTGAAAAGTTGTTATCCCTTGACGTAAGACACTTTGGATGGGTTGAAGTTCTGCACGTAGAAGCAAAAGGC [A27C T32A], 0.799; in that of GAGACCGCAACTGAAAAGTTGTTATCCCTTGCCGTAAGACACTTTGGATGGGTTGAAGTTCTGCACGTAGAAGCAAAAGGC [A27C T32C], 0.754. Consider GAGACCGCAACTGAAAAGTTGTTATCCCTTGGCGTAAGACACTTTGGATGGGTTGAAGTTCTGCACGTAGAAGCAAAAGGC [A27C T32G], for which the fraction ligated was determined as 0.78.

As for GAGACCGCAACTGAAAAGTTGTTATCCCTTGTGGTAAGACACTTTGGATGGGTTGAAGTTCTGCACGTAGAAGCAAAAGGC [A27C C33G], the fraction ligated worked out at 0.815. As to GAGACCGCAACTGAAAAGTTGTTATCCCTTGTAGTAAGACACTTTGGATGGGTTGAAGTTCTGCACGTAGAAGCAAAAGGC [A27C C33A], the fraction ligated came out at 0.827. As for GAGACCGCAACTGAAAAGTTGTTATCCCTTGTTGTAAGACACTTTGGATGGGTTGAAGTTCTGCACGTAGAAGCAAAAGGC [A27C C33T], the fraction ligated worked out at 0.795. Take GAGACCGCAACTGAAAAGTTGTTATCCCTTGTCGTAAGACACTTTGGAAGGGTTGAAGTTCTGCACGTAGAAGCAAAAGGC [A27C T49A]: the fraction ligated amounted to 0.701. As for GAGACCGCAACTGAAAAGTTGTTATCCCTTGTCGTAAGAAACTTTGGATGGGTTGAAGTTCTGCACGTAGAAGCAAAAGGC [A27C C40A], the fraction ligated was 0.817. Consider GAGACCGCAACTGAAAAGTTGTTATCCCTTGTCGTAAGAGACTTTGGATGGGTTGAAGTTCTGCACGTAGAAGCAAAAGGC [A27C C40G], for which the fraction ligated came out at 0.783. With GAGACCGCAACTGAAAAGTTGTTATCCCTTGTCGTAAGATACTTTGGATGGGTTGAAGTTCTGCACGTAGAAGCAAAAGGC [A27C C40T], the fraction ligated is 0.818. In the case of GAGACCGCAACTGAAAAGTTGTTATCCCTTGTCGTAAGACACTTTGCATGGGTTGAAGTTCTGCACGTAGAAGCAAAAGGC [A27C G47C], the fraction ligated came out at 0.158.

In the case of GAGACCGCAACTGAAAAGTTGTTATCCCTTGTCGTAAGACACTTTGTATGGGTTGAAGTTCTGCACGTAGAAGCAAAAGGC [A27C G47T], the fraction ligated turned out to be 0.126.

Consider GAGACCGCAACTGAAAAGTTGTTATCCCTTGTCGTAAGACACTTTGAATGGGTTGAAGTTCTGCACGTAGAAGCAAAAGGC [A27C G47A], for which the fraction ligated amounted to 0.799.

With GAGACCGCAACTGAAAAGTTGTTATCCCTTGTCCTAAGACACTTTGGATGGGTTGAAGTTCTGCACGTAGAAGCAAAAGGC [A27C G34C], the fraction ligated amounted to 0.808. In the case of GAGACCGCAACTGAAAAGTTGTTATCCCTTGTCTTAAGACACTTTGGATGGGTTGAAGTTCTGCACGTAGAAGCAAAAGGC [A27C G34T] it was 0.815; in that of GAGACCGCAACTGAAAAGTTGTTATCCCTTGTCATAAGACACTTTGGATGGGTTGAAGTTCTGCACGTAGAAGCAAAAGGC [A27C G34A], 0.809.

These data come from the supplement of paper PMC6755084.
